This passage reports koff results from publication PMC11234460, “In Silico Discovery of Stapled Peptide Inhibitor Targeting the Nur77‐PPARγ Interaction and Its Anti‐Breast‐Cancer Efficacy” (Advanced Science, 2024).

Bridges are numbered along the chain shown (N, C = ends). [ ]: non-standard residue; d: D form. S5 = C=CCCC[C@](C)(N)C(=O)O

In the assay the target is LBD fragment of human Nur77 (residues 351–598) (human), P22736. Kind of assay: SPR. The note with it: S-pentenyl-alanine (S5) at the i and i + 4 positions (Phe163 & Ile167), joined by ring-closing olefin metathesis (all-hydrocarbon staple), C-terminal primary amide X8 and X12 = S5 (S-pentenyl-alanine, replacing Phe163 and Ile167 of PPARγ), joined by an i,i+4 all-hydrocarbon staple (ring-closing olefin metathesis), free N-terminal amine, Tyr14 replaces Leu169, residues 15-25 are t, modification not given.
Chain of LBD fragment of human Nur77 (residues 351–598) (human), P22736 (P22736 351-598): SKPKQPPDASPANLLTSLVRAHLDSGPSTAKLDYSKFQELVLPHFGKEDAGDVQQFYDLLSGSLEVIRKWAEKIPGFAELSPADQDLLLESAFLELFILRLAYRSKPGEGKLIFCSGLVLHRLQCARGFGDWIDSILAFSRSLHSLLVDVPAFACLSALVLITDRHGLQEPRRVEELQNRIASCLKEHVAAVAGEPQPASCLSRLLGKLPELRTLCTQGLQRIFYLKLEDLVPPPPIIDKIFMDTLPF

A word on the koff: it is a measure of how fast the partners let go of each other. Regarding H-CEGCKGF[S5]RRT[S5]RYYGRKKRRQRRR-NH2 (staple 8-12; cysteine pairing not given here) [ST-CY14 (stapled T-CY14), P37231 156-169], the koff amounted to 0.052 s⁻¹.
